Reference: US20040053388A1, “Detection of protein conformation using a split ubiquitin reporter system” (priority 2003, published 2004)
Substitutions are numbered along the chain they refer to.

Experiments:
[1] = target: HA-tagged Ste4p (Saccharomyces cerevisiae) (UniProt P18851); test: cell-based or functional assay
yeast cells = test: Growth assay of Nub-p53core-Cub—RUra3p yeast cells on media containing 5-FOA; type: cell-based; details: Nia fusion protein
Source text: The wild-type core domain and a destabilizing mutation V143A were further tested using a simple growth assay employing the R-ura3 reporter (see above) and selecting clones that can grow on 5-FOA. In this case the Nub (I13A) mutant Nia was used. If the Nub—X—Cub—R-ura3 fusion is […], the R-ura3 reporter will be cleaved off of the C-terminal end of Cub and subsequently be degraded by N-end rule components (see above), allowing the host yeast cell to grow on the 5-FOA selective media.
Consistent with previous results, the V143A core mutant is a destabilizing mutant when compared to the wild-type p53. […] The Nia fusion protein allows to distinguish between the cells expressing the wild type p53core (growth) and the cells expressing the V143A mutant of the core (non-growth).

S. cerevisiae cells = test: Intrapolypeptide split-ubiquitin cleavage of Nub—X—Cub-Dha fusions, anti-HA immunoblot with chemiluminescence quantification; type: cell-based, Saccharomyces cerevisiae; details: yeast cells; for cleavage (percentage of cleaved Dha compared to the sum of cleaved and uncleaved fusion protein): 30° C., one hour induction with 100 μM CuSO4, anti-HA immunoblot
Source text: The isoleucine residues at position three and thirteen of Nub (Nii) were replaced by valine (Nxv; Nvx) alanine (Nxa; Nax) and glycine (Nxg; Ngx) (Johnsson et al., Proc. Natl. Acad. Sci. USA 91: 10340-44, 1994; Kellis et al., Biochemistry 28: 4914-22, 1989). The residues at position 3 and 13 are indicated by the suffix in Nub with the corresponding amino acids in the single letter code. The sixteen different combinations were first tested in the otherwise native Ub which was attached in front of the dihydrofolate reductase carrying the HA epitope at its C-terminus (Ub-Dha). The analysis of the cleaved and uncleaved protein was performed by immunodetection of the proteins with the anti-HA antibody after cell extraction and SDS-PAGE separation.
S. cerevisiae cells expressing the different Nub—X—Cub-fusions were grown at 30° C. in […] of SD medium to an OD600 of 0.8 and supplemented with 100 μM CuSO4 one hour prior to cell extraction. Cell extraction for immunoblotting was performed essentially as previously described (Johnsson et al., Embo J. 13: 2686-98, 1994). Proteins were fractionated by SDS-12.5% PAGE and electroblotted onto nitrocellulose membranes (Schleicher and Schuell, Dassel, Germany), using a semi-dry transfer system (Hoefer, Pharmacia Biotech INC., San Francisco, Calif.). Blots were incubated with a monoclonal anti-ha antibody (Babco, Richmond, Calif.). Bound antibody was visualized with horseradish peroxidase-coupled rabbit anti-mouse or goat anti-rabbit antibody (BioRad, Hercules, Calif.), using the chemiluminescence detection system (Pierce, Rockford, Ill.). The chemiluminescence was quantified with the aid of the lumi-imager system (Boehringer, Mannheim, Germany).

Guk1-Cub-Dha = Guk1-Cub-Dha (Saccharomyces cerevisiae, UniProt P15454 1-187; P0CG63 35-76; P00375 1-187); test: split-ubiquitin in trans: coexpression in yeast, anti-ha immunoblot of cleaved Dha
Source text: (§1) A significant extent of the observed cleavage could arise from the intermolecular reassociation of two Ub-halves that are linked to two different polypeptides. To estimate the contribution of the intermolecular Ub-reassociation, Guk1-Cub-Dha was coexpressed with several versions of Nub-Guk1-ha as was Fpr1-Cub-Dha with several versions of Nub-Fpr1-ha (FIG. 4a). Good intermolecular Nub—Cub reassociation is only seen in cells expressing the Nᵢᵢ-fusions, whereas none or only background cleavage is seen in those cells co-expressing the corresponding Nig-fusions. Nub-mutants with a lower affinity for Cub than Nig were therefore not tested. It thus can be concluded that the cleaved Dha observed for Nig—Cub fusion proteins and for those fusion proteins containing a Nub with a lower affinity for Cub than Nig must result exclusively from the intramolecular reassociation of the coupled Ub-peptides. The structure of Guk1p offers a reasonable explanation for this observation, that can not apply for the Fpr1p fusion proteins. Here the reassociation must either occur before Fpr1p is folded or after the unfolding of the already matured protein. […] We conclude that the fraction of cleaved Dha which is detected in the immunoblot analysis of cells expressing Nvg-Fpr1-Cub-Dha is largely derived from fusion proteins which stayed in the cytosol long enough to give the Fpr1-moiety sufficient time to fold.

Fpr1-Cub-Dha = Fpr1-Cub-Dha (Saccharomyces cerevisiae, UniProt P20081 1-114; P0CG63 35-76; P00375 1-187); test: as above
Source text: as §1

Sequence of HA-tagged Ste4p (Saccharomyces cerevisiae) (P18851 other isoform, or with tags, fused parts or gaps limits assumed): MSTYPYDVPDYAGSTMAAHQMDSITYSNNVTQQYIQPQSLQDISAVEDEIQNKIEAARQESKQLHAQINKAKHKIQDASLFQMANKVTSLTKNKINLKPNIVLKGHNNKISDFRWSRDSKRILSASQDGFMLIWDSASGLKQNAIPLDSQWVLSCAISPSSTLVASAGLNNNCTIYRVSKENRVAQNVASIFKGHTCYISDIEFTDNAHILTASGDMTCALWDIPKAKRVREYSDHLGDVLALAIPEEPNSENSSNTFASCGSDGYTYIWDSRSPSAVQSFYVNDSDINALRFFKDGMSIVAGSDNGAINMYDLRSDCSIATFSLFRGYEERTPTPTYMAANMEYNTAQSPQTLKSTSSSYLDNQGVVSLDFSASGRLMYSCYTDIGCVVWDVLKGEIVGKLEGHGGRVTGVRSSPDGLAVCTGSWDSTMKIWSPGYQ
Sequence of Fpr1-Cub-Dha (P20081 other isoform, or with tags, fused parts or gaps): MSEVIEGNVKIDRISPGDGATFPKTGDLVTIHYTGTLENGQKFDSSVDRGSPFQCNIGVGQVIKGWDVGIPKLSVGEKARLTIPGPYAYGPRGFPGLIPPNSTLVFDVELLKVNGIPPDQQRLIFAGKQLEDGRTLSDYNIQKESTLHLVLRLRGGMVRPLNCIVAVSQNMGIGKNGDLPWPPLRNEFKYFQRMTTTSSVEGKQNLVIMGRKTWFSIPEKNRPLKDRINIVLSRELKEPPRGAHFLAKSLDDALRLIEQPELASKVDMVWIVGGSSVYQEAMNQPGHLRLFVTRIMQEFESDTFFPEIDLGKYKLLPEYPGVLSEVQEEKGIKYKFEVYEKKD
Sequence of Guk1-Cub-Dha (P15454 other isoform, or with tags, fused parts or gaps): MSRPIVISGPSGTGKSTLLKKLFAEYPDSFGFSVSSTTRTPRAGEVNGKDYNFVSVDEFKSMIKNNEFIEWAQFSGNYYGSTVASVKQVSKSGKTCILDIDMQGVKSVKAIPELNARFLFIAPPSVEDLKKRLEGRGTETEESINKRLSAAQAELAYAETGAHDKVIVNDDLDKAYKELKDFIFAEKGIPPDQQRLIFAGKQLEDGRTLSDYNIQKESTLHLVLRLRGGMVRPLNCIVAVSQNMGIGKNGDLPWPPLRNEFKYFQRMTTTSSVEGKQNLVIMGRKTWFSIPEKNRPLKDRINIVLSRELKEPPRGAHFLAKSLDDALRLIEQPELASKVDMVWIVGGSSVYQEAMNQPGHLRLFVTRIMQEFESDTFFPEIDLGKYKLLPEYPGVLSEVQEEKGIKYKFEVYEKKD

Nvg-Ste1874-Cub-Dha (from UniProt P0CG63 1-37; P18852 37-105; P0CG63 35-76; P00375 1-187)
ratio of uncleaved to cleaved fusion protein with HA-Ste4p against without, expression not induced by copper [1]: 1.6 fold

Nvg-Ste1891-Cub-Dha (from UniProt P0CG63 1-37; P18852 20-105; P0CG63 35-76; P00375 1-187)
fraction of uncleaved fusion protein (ratio of uncleaved to cleaved) with HA-Ste4p against without, inducing conditions (+Cu2+) [1]: 2 fold | fraction of uncleaved fusion protein (ratio of uncleaved to cleaved) with HA-Ste4p against without, non-inducing conditions [1]: 3.6 fold

wild type p53core: p53 core domain (amino acids 102-292) in Nub-p53core-Cub—RUra3p fusion
growth on media containing 5-FOA (yeast cells): growth

B1: Guk1V5R: Fusion construct of Guk1p with valine 5 replaced by arginine (protein, UniProt P15454 2-187, looked up, variant V5R)
Guanylate kinase: SRPIRISGPSGTGKSTLLKKLFAEYPDSFGFSVSSTTRTPRAGEVNGKDYNFVSVDEFKSMIKNNEFIEWAQFSGNYYGSTVASVKQVSKSGKTCILDIDMQGVKSVKAIPELNARFLFIAPPSVEDLKKRLEGRGTETEESINKRLSAAQAELAYAETGAHDKVIVNDDLDKAYKELKDFIFAEK
modifications: split-ubiquitin fusion construct
notes: Fusion construct of Guk1p with valine 5 replaced by arginine
cleavage (percentage of cleaved Dha compared to the sum of cleaved and uncleaved fusion protein) (S. cerevisiae cells): 61%

B2: Nvg-Guk1G8R—Cub-Dha: Nvg—Cub-Dha fusion of Guk1p with glycine 8 replaced by arginine (protein, UniProt P15454 2-187, looked up, variant G8R)
Guanylate kinase: B1 Guanylate kinase with R5V, G8R
modifications: fused to Nvg, Cub, Dha
notes: Nvg—Cub-Dha fusion of Guk1p with glycine 8 replaced by arginine
cleavage of fusion protein (in words) (S. cerevisiae cells; anti-HA immunoblot): cleaved as completely as the corresponding wild type construct

B3: Nig-Guk1-ha (other, UniProt P0CG63 1-37, looked up, not shown: small tags and cut ends)
chain: MQIFVKTLTGKTGTLEVESSDTIDNVKSKIQDKEGIPMSRPIVISGPSGTGKSTLLKKLFAEYPDSFGFSVSSTTRTPRAGEVNGKDYNFVSVDEFKSMIKNNEFIEWAQFSGNYYGSTVASVKQVSKSGKTCILDIDMQGVKSVKAIPELNARFLFIAPPSVEDLKKRLEGRGTETEESINKRLSAAQAELAYAETGAHDKVIVNDDLDKAYKELKDFIFAEK
notes: also called Nub-Guk1-ha; Nig-fusion
binding result (Guk1-Cub-Dha): no binding

B4: Nig-Fpr1-ha (other, UniProt P0CG63 1-37, looked up, not shown: small tags and cut ends)
chain: MQIFVKTLTGKTGTLEVESSDTIDNVKSKIQDKEGIPMSEVIEGNVKIDRISPGDGATFPKTGDLVTIHYTGTLENGQKFDSSVDRGSPFQCNIGVGQVIKGWDVGIPKLSVGEKARLTIPGPYAYGPRGFPGLIPPNSTLVFDVELLKVN
notes: also called Nub-Fpr1-ha; Nig-fusion
binding result (Fpr1-Cub-Dha): no binding

B5: Fpr1V107A (protein, UniProt P20081 2-114, looked up, variant V107A)
FK506-binding protein 1: SEVIEGNVKIDRISPGDGATFPKTGDLVTIHYTGTLENGQKFDSSVDRGSPFQCNIGVGQVIKGWDVGIPKLSVGEKARLTIPGPYAYGPRGFPGLIPPNSTLVFDAELLKVN
cleavage (percentage of cleaved Dha compared to the sum of cleaved and uncleaved fusion protein) (S. cerevisiae cells): 55%

B6: Fpr1V107G (protein, UniProt P20081 2-114, looked up, variant V107G)
FK506-binding protein 1: B5 FK506-binding protein 1 with A107G
cleavage (percentage of cleaved Dha compared to the sum of cleaved and uncleaved fusion protein) (S. cerevisiae cells): 40%
